Laboratory results as given in the supplement of paper PMC10567573.

B1: TRIM43 (parent)
chain: NRFRVEISFHFEVTNHNIRLFEDV

Variants of: B1
Experiment: protein stability index of a GFP-peptide fusion (GPS, HEK-293T) (PSI 1-6); higher = more stable
Details: c terminus: a fixed tail appended
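Note: lentivirally expressed fusions sorted by FACS into six bins by GFP to DsRed ratio, PSI derived from sequencing read proportions per bin multiplied by bin number.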

Variant | protein stability index
NRFRVSISFHFEVTNHNIRLFEDV | 3.18
NRFRVEISFHFWVTNHNIRLFEDV | 2.64
NRFRVEISFHFIVTNHNIRLFEDV | 1.68
NRFRVEISFHFNVTNHNIRLFEDV | 1.39
NRFRVEISFHFYVTNHNIRLFEDV | 2.51
NRFRVEISFHFEVTNANIRLFEDV | 3.14
NRFRVEISFHFEVTNSNIRLFEDV | 2.05
NRFRVEISFHFEVTNVNIRLFEDV | 1.07
NRFRVEISFHFEVTNYNIRLFEDV | 2.9
NRFRVEISFHFEVTNCNIRLFEDV | 3.06
NRFRVEISFHFEVTNHCIRLFEDV | 3.65
NRFRVEISFHFEVTNHDIRLFEDV | 4.85
NRFRVEISFHFEVTNHQIRLFEDV | 3.45
NRFRVEISFHFEVTNHRIRLFEDV | 2.53
NRFRVEISFHFEVTNHFIRLFEDV | 2.85
NRFRVEISFHIEVTNHNIRLFEDV | 2.83
NRFRVEISFHTEVTNHNIRLFEDV | 2.44
NRFRVEISFHEEVTNHNIRLFEDV | 1.03
NRFRVEISFHFEVTSHNIRLFEDV | 2.18
NRFRVEISFHFEVTVHNIRLFEDV | 2.13
NRFRVEISFHFEVTLHNIRLFEDV | 3.22
NRFRVEISFHFEVTGHNIRLFEDV | 2.28
NRFRVEISFHFEVTWHNIRLFEDV | 3.34
NRFRVEISFHFEVTYHNIRLFEDV | 3.23

Variant | protein stability index
NRFRVEISFHFEVTEHNIRLFEDV | 2.92
NRFRVEISFHFEVHNHNIRLFEDV | 3.49
NRFRVEISFHFEVYNHNIRLFEDV | 3.83
NRFRVEISFHFEVNNHNIRLFEDV | 3.31
NRFRVEISFHFEVTNHNIRLFEDI | 2.14
NRFRVEISFHFEVTNHNIRLFEDH | 4.23
NRFRVEISFHFEVTNHNIRLFEDT | 2.44
NRFRVEISFHFEVTNHNIRLFEDF | 2.43
NRFRVEISFHFEVTNHNIRLFEDQ | 3.09
NRFRVEISFHFEVTNHNIRLFEDL | 1.95
NRFRVEISFHFEVTNHNIRLFEDK | 2.85
NRFRFEISFHFEVTNHNIRLFEDV | 2.78
NRFREEISFHFEVTNHNIRLFEDV | 1.46
NRFRNEISFHFEVTNHNIRLFEDV | 2.11
NRFRQEISFHFEVTNHNIRLFEDV | 1.79
NRFRAEISFHFEVTNHNIRLFEDV | 3.44
NRFRGEISFHFEVTNHNIRLFEDV | 2.86
NRFRDEISFHFEVTNHNIRLFEDV | 2.08
NRFRPEISFHFEVTNHNIRLFEDV | 2.8
NRFRKEISFHFEVTNHNIRLFEDV | 3.27
NRFRVEISFHFEPTNHNIRLFEDV | 4.3
NRFRVEISFHFEMTNHNIRLFEDV | 2.35
NRFRVEISFHFEHTNHNIRLFEDV | 2.26
NRVRVEISFHFEVTNHNIRLFEDV | 2.2

Variant | protein stability index
NRIRVEISFHFEVTNHNIRLFEDV | 2.35
NRMRVEISFHFEVTNHNIRLFEDV | 2.92
NRNRVEISFHFEVTNHNIRLFEDV | 3.43
NRERVEISFHFEVTNHNIRLFEDV | 1.53
NRTRVEISFHFEVTNHNIRLFEDV | 2.7
NRFRVEISFHFEVTNHNIRLYEDV | 3.98
NRFRVEISFHFEVTNHNIRLCEDV | 2.67
NRFRVEISFHFEVTNHNIRLPEDV | 1.76
NRFRVEISFHFEVTNHNIRLEEDV | 2.31
NRFRVEISFHFEVTNHNIRLWEDV | 2
NRFRVEISFHFEVTNHNIRQFEDV | 3.28
NRFRVEISFHFEVTNHNIRRFEDV | 3.74
NRFRVEISFHFEVTNHNIRYFEDV | 2.13
NRFRVEISFHFEVTNHNIRFFEDV | 3.05
NRFRVEISQHFEVTNHNIRLFEDV | 1.28
NRFRVEISSHFEVTNHNIRLFEDV | 1.91
NRFRVEISPHFEVTNHNIRLFEDV | 2.08
NRFRVEISGHFEVTNHNIRLFEDV | 2
NRFRVEISHHFEVTNHNIRLFEDV | 1.09
NRFRVEISKHFEVTNHNIRLFEDV | 1.85
NRFRVEISDHFEVTNHNIRLFEDV | 2.27
NRFRVEISTHFEVTNHNIRLFEDV | 2.01
NRFRVEISNHFEVTNHNIRLFEDV | 2.22
NRFRVENSFHFEVTNHNIRLFEDV | 2.06

Variant | protein stability index
NRFRVEKSFHFEVTNHNIRLFEDV | 2.12
NRFRVEESFHFEVTNHNIRLFEDV | 1.91
NRFRVEYSFHFEVTNHNIRLFEDV | 3.41
NRFRVEISFHFEVTNHNIYLFEDV | 3.54
NRFRVEISFHFEVTNHNISLFEDV | 3.39
NRFRVEISFHFEVTNHNIHLFEDV | 3.79
NRFRVEISFHFEVTNHNIQLFEDV | 2.14
NRFRVEISFHFEVTNHNIPLFEDV | 1.69
NRFRVEISFHFEVTNHNIRLFENV | 2.91
NRFRVEISFHFEVTNHNIRLFEMV | 2.12
NRFRVEISFHFEVTNHNIRLFEQV | 2.92
NRFRVEISFHFEVTNHNIRLFEEV | 2.56
NRFRVEISFHFEVTNHNIRLFEFV | 3.88
NRFRVEISFHFEVTNHNIRLFEYV | 2.39
NRFLVEISFHFEVTNHNIRLFEDV | 2.88
NRFEVEISFHFEVTNHNIRLFEDV | 3.4
NRFGVEISFHFEVTNHNIRLFEDV | 3.21
NRFKVEISFHFEVTNHNIRLFEDV | 2.96
NRFNVEISFHFEVTNHNIRLFEDV | 2.75
NRFCVEISFHFEVTNHNIRLFEDV | 2.91
NRFIVEISFHFEVTNHNIRLFEDV | 3.43
NRFTVEISFHFEVTNHNIRLFEDV | 2.08
